Results on one protein are retold here after US7320863B2, “Thyroid sodium/iodide symporter and nucleic acid encoding same” (Albert Einstein College of Medicine of Yeshiva University, priority 1996, dated 2008).

Substrate in this series: I
Kind of series: cells, lysate or membranes. Conditions: other: initial velocity rates at 2 min, iodide 1.25 to 250 μM, oocytes 60 h after injection; 37.0 °C.

B1: rat sodium/iodide symporter (Rattus norvegicus) (protein)
chain: MEGAEAGARATFGAWDYGVFATMLLVSTGIGLWVGLARGGQRSADDFFTGGRQLAAVPVGLSLAASFMSAVQVLGVPAEAARYGLKFLWMCAGQLLNSLLTAFLFLPIFYRLGLTSTYQYLELRFSRAVRLCGTLQYLVATMLYTGIVIYAPALILNQVTGLDIWASLLSTGIICTLYTTVGGMKAVVWTDVFQVVVMLVGFWVILARGVILLGGPRNVLSLAQNHSRINLMDFDPDPRSRYTFWTFIVGGTLVWLSMYGVNQAQVQRYVACHTEGKAKLALLVNQLGLFLIVASAACCGIVMFVYYKDCDPLLTGRISAPDQYMPLLVLDIFEDLPGVPGLFLACAYSGTLSTASTSINAMAAVTVEDLIKPRMPGLAPRKLVFISKGLSFIYGSACLTVAALSSLLGGGVLQGSFTVMGVISGPLLGAFTLGMLLPACNTPGVLSGLAAGLAVSLWVAVGATLYPPGEQTMGVLPTSAAGCTNDSVLLGPPGATNASNGIPSSGMDTGRPALADTFYAISYLYYGALGTLTTMLCGALISYLTGPTKRSSLGPGLLWWDLARQTASVAPKEDTATLEESLVKGPEDIPAVTKKPPGLKPGAETHPLYLGHDVETNL
Regarding B1, the Km is 36 µM.
